Results on five molecules are retold here after patent US20120190616A1 (IPSEN PHARMA S A S, published 2012).

The test concerns the target T1, native IGF-1 receptor of human MCF-7 cells (human, UniProt P08069 31-1367).
T1 construct: whole, on cells; assayed in membranes prepared from MCF-7 cells
Nature of the test: radioligand competition, [125I]IGF-1 on MCF-7 cell membranes. As for the experimental part: The homogenates were washed twice by centrifugation (39,000 g/10 minutes) and the final pellets were resuspended in 50 mM Tris-HCl containing 2.5 mM MgCl₂ and 0.1% BSA.
Unlabeled competing test peptides were sometimes included. The final assay volume was 0.25 ml. […] The supernatant was decanted and the radioactive particles trapped in the pellet was counted by gamma spectrometry (Wallac LKB, Gaithersburg, Md., USA).
Background: In a radioligand displacement assay an active substance lowers the binding of a labelled ligand.

In general, IC50 refers to the concentration needed to halve the response being measured.

Changes are numbered by the printed parent chain.

B1: (Pro^27, Lys^28, Asn^59)hIGF-1(1-62)-OH (ligand)
chain: GPETLCGAELVDALQFVCGDRGFYFNPKTGYGSSSRRAPQTGIVDECCFRSCDLRRLENYCA
notes: synthetic; free acid C-terminus
In the case of B1, the IC50 turned out to be 1.14 nM.

B2: (Arg^27,65,68, Leu^59)hIGF-1(1-70)-OH (ligand)
chain: GPETLCGAELVDALQFVCGDRGFYFNRPTGYGSSSRRAPQTGIVDECCFRSCDLRRLELYCAPLRPARSA
notes: synthetic; free acid C-terminus; disulfides 6-48, 47-52, 18-61
The molecule B2 yielded an IC50 of 2.69 nM. This IC50 lies about 2.4-fold higher than the previous one.

B3: (Leu^59, Arg^65,68)hIGF-1(1-70)-OH (ligand)
chain: B2 chain with R27K
notes: as for B2
B3: the concentration for half-maximal inhibition (IC50) turned out to be 2.89 nM.

B4: (Pro^27, Lys^28, Asn^59)hIGF-1(1-70)-OH (ligand)
chain: B2 chain with R27P, P28K, L59N, R65K, R68K
notes: as for B2
B4 came in with an IC50 of 0.88 nM. This IC50 lies about 3.3-fold lower than the previous one.

B5: (Asn^59, Thr^63, des-Leu^64, des-Lys^65, Glu^70)hIGF-1(1-70)-OH (ligand)
chain: GPETLCGAELVDALQFVCGDRGFYFNKPTGYGSSSRRAPQTGIVDECCFRSCDLRRLENYCATPAKSE
notes: synthetic; Leu64 and Lys65 deleted; free acid C-terminus; disulfides 6-48, 47-52, 18-61
For the molecule B5, the IC50 amounted to 19 nM.
